Results taken from US9181296B2, “Stabilized liquid enzyme compositions” (NOVOZYMES A/S, priority 2008, dated 2015).

Molecular target: T1, Protease (Savinase 16.0 LEX) (Lederbergia lenta, UniProt P29600)
T1 construct: purchased Novozymes Savinase 16.0 LEX
T1 sequence (P29600 1-269): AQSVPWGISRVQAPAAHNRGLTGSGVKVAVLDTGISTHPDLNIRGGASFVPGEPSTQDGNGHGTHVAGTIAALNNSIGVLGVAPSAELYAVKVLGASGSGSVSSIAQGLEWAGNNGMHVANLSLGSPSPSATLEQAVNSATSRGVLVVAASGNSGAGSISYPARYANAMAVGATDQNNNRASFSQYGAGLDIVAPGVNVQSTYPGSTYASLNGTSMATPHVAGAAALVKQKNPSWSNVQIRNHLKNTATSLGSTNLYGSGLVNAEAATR
Assay: Storage stability of protease in liquid detergent N with stabilizer (Example 3)
Assay type: biochemical
Conditions: 1 week 40° C.
Procedure: Peptide aldehydes Z-GAF-H, Z-GAL-H and Z-GAY-H were produced by peptide synthesis, all with a purity >80%. The peptide aldehydes were dissolved in DMSO to a concentration of 10 mg/ml before use.
The following detergent N with enzymes was prepared:
The following detergents with stabilizer according to the invention were prepared and normalized to 100 g of detergent:
The detergents were placed in closed glasses at 40° C. Residual activity of protease was measured (by comparison to a reference stored at −18° C.) after 1 week, using standard enzyme analytical methods (protease measured by hydrolysis of N,N-dimethylcasein at 40° C., pH 8.3).

**Q.** Which “Molar surplus of inhibitor relative to protease needed to reach the same residual activities as the other peptide aldehydes” value (compared with Z-GAL-H and Z-GAF-H in detergent N) does the source give for Z-GAY-H here?
**A.** approximately half

**Q.** What about the “Efficiency for stabilizing the protease (in words)” value (detergent N) of the same substance?
**A.** most efficient
